Source: the supplement of paper PMC9170038

Test system: MS2 coat protein
Assay: apparent KD of MS2 coat protein; higher = weaker reporter binding
Conditions: Eterna round: R107
How it was run: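 Designed RNA switches were transcribed on-chip from Illumina sequencing clusters. They were then titrated with SNAP-549-labelled MS2 coat protein (twofold steps, 0.7 or 1.5 nM to 3 µM; 0.8–1.5 h to 10–20 min per step) in 100 mM Tris-HCl pH 7.5, 80 mM KCl, 4 mM MgCl2, without or with constant ligand. Apparent KD is the per-design median of normalised cluster binding-curve fits.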

[1] = input ligand: theophylline 20 uM
[2] = input ligand: tryptophan 2.4 mM
[3] = input ligand: theophylline 2 mM

Sequence	apparent KD of MS2 coat protein (input ligand: arginine 13.2 mM) [nM]	apparent KD of MS2 coat protein [1] [nM]	apparent KD of MS2 coat protein [2] [nM]	apparent KD of MS2 coat protein (input ligand: none) [nM]	apparent KD of MS2 coat protein [3] [nM]
CCACACAUGAGGAUCACCCAUGUAAUUGAUACCAGAUUUAAAUGAGUCCCUUGGCAGCAGUGAGCUAGAGUUGUCGUAUAUAUGG [Theo A SS t2]	14.2	23.8	16.1		
ACGCUGAUUGAUUACAAUCAGCGAAAAGAUACCAGUGGGUAAUCCCACCCUUGGCAGCUUAAACAUGAGCAUCAGCCAUGUGGUA [TheoAS 15 #MS2Right #BothOrNeither #AlternativeMS2]	77.9	114	142	119	37.2
CUAUUUAUAGCGGCCGCCACUUACUCAUGAGGUAACAACAUGAGGAUCACCCAUGUUUGAGGAUCAAGGACCGGGCUAUAGAUAG [AstrosSSTryB#11]	36.7	20.3	15	27.5	24.3
AACUGGACCCGUGAUACCAGAGACAUGAGGAUCACCCAUGUACAUGAGGAUCACCCAUGUCUCCCUUGGCAGCACCGCAGGGAGC [Exclusion Theophylline B GF 13]	45.7	127	128		
GGGUACAUCGCGGCCGCCACUUAUGUAAAUACAUGAGGAUCACCCAUGUCGAUGGAGACAUCGGAGAGGACCGGGUGAUGUACCG	28.2	41.6			48
GGACUAACCAGAAGGAGCGGCACAAAGCAGAAACUGCAUCCUCCGCACGAGGAUCACCCGUGUCAGGUAGGUCGCUGGUUAGUCG [ArgBX 28]	46.2	70.6	62	57.5	69.5
ACAUGAGGAUCACCCAUGUUCCUCGCCGAUACCAGUGAAGAAUUACGCCCUUGGCAGCGGAAAGAGUGUUUUGGAGAUGAGGUAC [6.aA]	80.5	112	100		
GGGUAAGAUCCGGAUACCAGCGAACAUGAGGAUCACCCAUGUGACCUAAGAUAGGCUAAACGCCCUUGGCAGCCGAGAUAGCGUU [Same State Theophylline B GF 6]	27.2	34.2	39.5	41.3	30.7
GGCACCAGGAGAAGGAGCGUGAAGACAUGAGGAUCACCCAUGUAGAGGCCCGUACCGGGUUCGCAGGUAGGUCGCUCCUGGUGCC [#1 Same State - Arginine B Attempt #14 (HarryS)]	19.2	38.1	24.2	23	27.1
UGUAUGGACUGAAGGAGCGGAAAAUAAACCUGAGGAUCACCCGGGUAAUAGGCGAAAGCCAUCCAGGUAGGUCGCAGUCCAUACU	156	233	291		385
GGUGGCGUGACGGAUACCAGCCACCGCCGCAAGGCAACAUGAGGAUCACCCAUGUUGGGUGGCCCUUGGCAGCUGUCGUGCGGCG [#1 Same State - Theophylline B Attempt #22 (HarryS)]	13.3	151	50.2	195	159
CUUAUAGUAACUGAUACCAGUGUACUGACAUGAGGAUCACCCAUGUUGGGUUUUGUUGUACACCCUUGGCAGCAGAAUCUAUAAG [AstrosExyTheB#10]	49.2	65.7	58.8		
UUACACAUGAGGAUCACCCAUGUCUGGGAGCGAGGACCGGUACGGCCGCCACUCGAAUUGUCAGGGCUAUGCCGGACGAUGCAUC [theeternabot_sameState_MS2_Trp_A_20]	20.6	23.5			25
CACGAAAGAUCGGCCGCCACUAUUUGAUGUGUUCUUUCACAUGAGGAUCACCCAUGUUCUUUCUUUAGGACCGGGAUUGAGCGUG [ETB #1]	88.8	126			162
ACGGAUCGGAAACGAUCCGCGGCUAGGGUGCGAGGACCGGUACGGCCGCCACUCGGGUAACAUGAGGAUCACCCAUGUCCGAUUU [ETA NP+V+V2 #13 Same Structure]	36.4	79	198	92.7	143
GUCCUAGCGAGCACUCGCUAGGACGCGGAUACCAGCGAGGUCCAUCGCCCUUGGCAGCCGAACAUGAGGAUCACCCAUGUCGGUA [#1 Same State - Theophylline A Attempt #17 (HarryS)]	12.6	13.2	9.86	10	18
GAGGAAACUCACAUGAGGAUCACCCAUGUACGAGGACCGGUACGGCCGCCACUCGAAACCAUGGGCGGUAGUACGUGGAAGCUUG [Design 2 MOD 2]	21.1	31.3			23.8
GUUAUUAGAAAACUAAUAACAGUGGGUGAACGAGGACCGGUACGGCCGCCACUCGGACAUGAGGAUCACCCAUGUCCAUGUGAAA [AstrosExyTryA#4]	12.1	15.8			16.5
ACGAUAGGACUUGAGGAACACCCAAGUGAUACCAGCCUGGAAACAGGCCCUUGGCAGCACUAAUACUCCAAUAACCUAUCGAAUA [TheoAX 15 #MicroSwitchBubble #AlternativeMS2]	140	172	155	212	66.7

Sequence	apparent KD of MS2 coat protein (input ligand: arginine 13.2 mM) [nM]	apparent KD of MS2 coat protein [1] [nM]	apparent KD of MS2 coat protein [2] [nM]	apparent KD of MS2 coat protein (input ligand: none) [nM]	apparent KD of MS2 coat protein [3] [nM]
AAUUUUAACGGAAGGAGCGUCACGUAAUUCAUACAUGAGGAUCACCCAUGUUAGUUGUAGAGACAGGUAGGUCGCCGUUAUUUGA [JR_AAArginiB_Sub025]	15.7	20.9	17	15.7	17.1
AAUAAGCAGCUGCAUCAUGGGUGAGCAGAUACCAGCUAGGAAACUAGCCCUUGGCAGCUGCAACAUGAGGAUCACCCAUGUAAUA [(T)'-(M)'-(T1)-(T2)-(M1)-(M2)_Design5]	47.1	108	34.7	42.7	46.3
CAGACUAGGGCGGCCGCCACUGUGGCUACGGUACAUGAGGAUCACCCAUGUUUGUGGUUGAUCUACAGGACCGGGCCCUGGCACG [Orbera]	9.05	588	273	305	200
AAUUAUCAGUCGGCCGCCACUGACACAUGAGGAUCACCCAUGUAACUUGGGUUAAAUUUAAUAAACAGGACCGGGACAAAGGCUA [JR_ExcTryptoB_Sub010]	94.4	189			192
CCUAUUCCUACGGAUACCAGACGAUCCGUGGCGUGUGUGAACAUGAGGAUCACCCAUGUAGUCCCUUGGCAGCCGAUGCGGGUAA [theeternabot_exclusion_MS2_Theo_B_10]	37.7	51.4	33.5		
AUAACAUGAGGAUCACCCAUGUUGAGUGAUACCAGACCAUGUAGUGUCCCUUGGCAGCACAGGUAAAGUUGUAAAUAACGAUAGA [#13 SameState-TheophyllineA]	38.6	64.7	59.7	53.9	22.8
AAUAAUAAGGCGGCCGCCACUACACAUGAGGAUCACCCAUGUCUCGCGGGCUUGCGUUGGGAAUGUAGGACCGGGCCAAUAAUAA [Exclusion - Tryptophan B (Freestyle 10)]	14.3	25.8			27.9
ACAUGAGGAUCACCCAUGUACAUGAGGGAAGGAGCGGUACAUGUGCCAGGUAGGUCGCCCAUGAGCAUCAGCCAUGUACAUCAGC [l,ommullin]	42.1	102	75	82.7	75.3
GGAGCUACGUCGGCCGCCACUAGCGGUUAUUACGUGUACAUGAGGAUCACCCAUGUAAUAUGGCUUAGGACCGGGACGUAGCUCC [Wolverine]	21	29			27.8
ACGCCCAGGUAGGCUUAGUGGGAAAUGGAAGGAGCGCUGAUGCAAGCAGGUAGGUCGCCAACGAACAUGAGGAUCACCCAUGUAA [Same State - Arginine A (Freestyle 1)]	14	29.8	16.4	17.9	20.7
CUGACAGACUCGGCCGCCACUGAUAGUAGGACAUGAGGAUCACCCAUGUAAACAAACCUCAUAGCCAGGACCGGGAGUCACGAAG [Same State Tryptophan B GF 21]	31	57.1	24.9	45.6	51.3
GGCACAUAGUCGGCCGCCACUAGAAUAAGAUGGAAUAACAUGAGGAUCACCCAUGUAAAAGGGACUAGGACCGGGACUAUGUGCC [Goat]	12.9	15.7			14.3
UGACGAUACCUGGAUACCAGCGACAUGAGGAUCACCCAUGUAUGAGGAUCAGCCAUGUUAUGCCCUUGGCAGCCACGAAAGUCUU [UUUMULLIN]	37.5	115	40.3		
GUAUUACGGACGGCCGCCACUGUGGGACAUGAGGAUCACCCAUGUGGCGCUACUUACAAGUGCGACAGGACCGGGUCAUGGUUUG [theeternabot_sameState_MS2_Trp_B_1]	152	732			783
GAUGAACUAUUUGAUACCAGACCACAUGAGGAUCACCCAUGUGAGUUUCGUCCUUAGCCGGUCCCUUGGCAGCAAAUAGUUUAUC [#27 Exclusion-TheophyllineB]	19.3	24.1	16.7		
AUACAUGAGGAUCACCCAUGUCCUCGUGAUCGAGGACCGGUACGGCCGCCACUCGGUCCUCGCGAGGAGGAGUCAAAGACUCCAA [Omei Trp A SS A v4]	38.5	111	53.8	82.9	113
UAUAUAUAGAUGGAUACCAGCAGAGAAAACGUUUAUCCUAACAUGAGGAUCACCCAUGUAUGCCCUUGGCAGCUGUUUAUAUAUA [8.I]	18.9	31.5	22.6		
GUUGGAUUCUCGGCCGCCACUGAGAGAGUCAUGUGAACAUGAGGAUCACCCAUGUAAUAUAUAUACAGGACCGGGAGGGUUGUAA [4.K]	21.9	35.8	14.8	20.2	22.6
AGUUACAUGAGGAUCACCCAUGUCCGGUUGCGAGGACCGGUACGGCCGCCACUCGGGUACAUCCCAGAAAAUACUGAAUGCCUGC [theeternabot_sameState_MS2_Trp_A_15]	41.8	66.4			84.5
